In the Immune Epitope Database (IEDB):

Tests used:
Test in all cases: IEDB peptide-MHC binding, purified MHC/competitive/fluorescence; filed as Kd, often an IC50 or EC50 that approximates it; ≥ and ≤ were set here for values at or beyond the usual limits of such assays
Conditions in all cases: source organism: Plasmodium falciparum 3D7
HLA-A*02:01 = target: HLA-A*02:01
HLA-A*24:02 = target: HLA-A*24:02
HLA-A*03:01 = target: HLA-A*03:01
HLA-B*44:02 = target: HLA-B*44:02
HLA-B*07:02 = target: HLA-B*07:02
HLA-A*01:01 = target: HLA-A*01:01

SISDYTKSL gave a Kd (HLA-A*02:01) of at least 352 µM.
LFGDENFSF showed a Kd (HLA-A*24:02) of 5.87 µM.
Sequence YTIGLPPYI has a Kd (HLA-A*24:02) of 6.57 µM and a Kd (HLA-A*02:01) of 2.46 µM.
Sequence ILISRLTLK has a Kd (HLA-A*03:01) of 0.22 µM.
Work on NEEIIDLLNL yielded a Kd (HLA-B*44:02) of at least 433 µM.
In the case of KNYDNYNMK, the Kd (HLA-A*03:01) is reported as 2.51 µM.
Sequence HYGINPVQL has a Kd (HLA-A*24:02) of 6.79 µM.
Sequence LTMKMINNK has a Kd (HLA-A*03:01) of 0.472 µM.
RNIISKHTSV showed a Kd (HLA-B*07:02) of at least 505 µM.
With SMTNIPMNV the Kd (HLA-A*02:01) was 0.244 µM.
Work on FPKLLNKPSL yielded a Kd (HLA-B*07:02) of at least 73.1 µM.
IENNLYERL gave a Kd (HLA-B*44:02) of at least 60.1 µM.
KLYSINSKSI showed a Kd (HLA-B*07:02) of at least 225 µM and a Kd (HLA-A*02:01) of at least 57.7 µM.
With YYPIIRKQF the Kd (HLA-A*24:02) was 0.101 µM.
In the case of ASFSASTGY, the Kd (HLA-A*03:01) is reported as 2.37 µM, the Kd (HLA-B*44:02) is reported as at least 31.7 µM and the Kd (HLA-A*01:01) is reported as at least 1000 µM.
In the case of FPPNTFDAL, the Kd (HLA-B*07:02) is reported as 2.72 µM.
Work on RLNLFCFSFL yielded a Kd (HLA-A*03:01) of 6.12 µM, a Kd (HLA-B*44:02) of at least 421 µM and a Kd (HLA-A*02:01) of at least 161 µM.
For KMKSDQYPI, the Kd (HLA-A*24:02) was 6.9 µM and the Kd (HLA-A*02:01) was 3.07 µM.
In the case of NYKQNNFPF, the Kd (HLA-A*24:02) is reported as 9.49 µM.
LLFQKAANL showed a Kd (HLA-A*02:01) of 1.88 µM.
Work on SSANDEQSY yielded a Kd (HLA-A*01:01) of at least 65 µM.
With SKHPFLKSGF the Kd (HLA-B*44:02) was at least 1000 µM.
GIANDLSTL was tested, and the Kd (HLA-A*02:01) was 5.73 µM.
NLFFQNKSI was tested, and the Kd (HLA-A*02:01) was at least 1000 µM.
LISRLTLKY was tested, and the Kd (HLA-A*01:01) was 11.5 µM.
With RLNNRSIYK the Kd (HLA-A*03:01) was 0.224 µM.
NLNLCGKYTK gave a Kd (HLA-A*03:01) of at least 1000 µM.
Work on PFLKSGFTF yielded a Kd (HLA-A*24:02) of 8.32 µM.
Work on RLNLFCFSF yielded a Kd (HLA-A*24:02) of 11 µM and a Kd (HLA-B*44:02) of at least 1000 µM.
With VIHYGINPV the Kd (HLA-A*02:01) was 1.7 µM.
NTFDALYYV showed a Kd (HLA-A*01:01) of at least 1000 µM and a Kd (HLA-A*02:01) of 8.76 µM.
Work on NMYQQNIPL yielded a Kd (HLA-A*02:01) of at least 331 µM.
Work on QVFDYPIEK yielded a Kd (HLA-A*03:01) of 1.57 µM.
Sequence LSSNIENIY has a Kd (HLA-A*01:01) of at least 29.6 µM.
In the case of EENLFEWSKT, the Kd (HLA-B*44:02) is reported as at least 1000 µM.
WLNNDIYNV gave a Kd (HLA-A*02:01) of 0.16 µM.
Sequence RSKKTFLVK has a Kd (HLA-A*03:01) of 0.409 µM.
Work on RISGWKGDNK yielded a Kd (HLA-A*03:01) of 0.548 µM.
DDTFEVYSEY gave a Kd (HLA-B*44:02) of at least 1000 µM and a Kd (HLA-A*01:01) of at least 1000 µM.
For CRDKTSALY, the Kd (HLA-A*01:01) was at least 1000 µM.
In the case of SHPKYRNFKF, the Kd (HLA-A*24:02) is reported as 16.6 µM.
Work on NYNNDQYNI yielded a Kd (HLA-A*24:02) of 6.54 µM.
EWLKTCKYYC gave a Kd (HLA-A*24:02) of at least 578 µM.
Work on YESQLGGKI yielded a Kd (HLA-B*44:02) of at least 66.3 µM.
With TIYGKGGFQF the Kd (HLA-B*07:02) was at least 109 µM.
HPMPINIKL gave a Kd (HLA-B*07:02) of 0.168 µM.
LISTDIIFL showed a Kd (HLA-A*02:01) of 0.614 µM.
With FLENFNFPL the Kd (HLA-A*01:01) was at least 1000 µM and the Kd (HLA-A*02:01) was 3.68 µM.
With FCFSFLKSSK the Kd (HLA-A*03:01) was 9.21 µM.
With IPPQVFDYPI the Kd (HLA-B*07:02) was at least 245 µM.
DSDDLKESY was tested, and the Kd (HLA-A*01:01) was 2.6 µM.
In the case of TTFFESVSY, the Kd (HLA-A*03:01) is reported as at least 658 µM and the Kd (HLA-A*01:01) is reported as at least 338 µM.
Work on NTVKCPNDY yielded a Kd (HLA-A*01:01) of at least 282 µM.
ILYKNIDCV showed a Kd (HLA-A*02:01) of 1.4 µM.
For MENEDVEFI, the Kd (HLA-B*44:02) was at least 36.9 µM.
Sequence DENLKAIQI has a Kd (HLA-B*44:02) of at least 91.3 µM.
ALNLFFQNK gave a Kd (HLA-A*03:01) of 1.14 µM.
Sequence NPVQLKSKF has a Kd (HLA-B*07:02) of at least 59.6 µM.
For KTCKYYCFK, the Kd (HLA-A*03:01) was at least 116 µM.
NLFEWSKTV gave a Kd (HLA-A*02:01) of 1.62 µM.
LLNSDRRDL showed a Kd (HLA-B*07:02) of 0.2 µM.
With ITNKNKVTIY the Kd (HLA-A*03:01) was 8.72 µM and the Kd (HLA-A*01:01) was at least 1000 µM.
Sequence TSKQGSSNKY has a Kd (HLA-A*01:01) of at least 1000 µM.
In the case of DTFEVYSEY, the Kd (HLA-A*03:01) is reported as at least 1000 µM and the Kd (HLA-A*01:01) is reported as at least 1000 µM.
Sequence SPHDTMQKDD has a Kd (HLA-B*07:02) of at least 1000 µM.
In the case of FTNVNQFFK, the Kd (HLA-A*03:01) is reported as 0.921 µM and the Kd (HLA-A*01:01) is reported as at least 1000 µM.
For YGKGGFQFVF, the Kd (HLA-A*24:02) was 0.231 µM.
In the case of FDNSGISLL, the Kd (HLA-B*44:02) is reported as at least 1000 µM and the Kd (HLA-A*02:01) is reported as at least 229 µM.
For SLTHKYNEF, the Kd (HLA-A*24:02) was 12.6 µM.
Work on AEISRNDLI yielded a Kd (HLA-B*44:02) of 4.53 µM.
With MDFPKLLNK the Kd (HLA-A*03:01) was 2.08 µM.
SESTSTYNT was tested, and the Kd (HLA-B*44:02) was at least 103 µM.
RSSGSTFSIK gave a Kd (HLA-A*03:01) of 0.326 µM.
In the case of NNNFRNNMY, the Kd (HLA-A*01:01) is reported as at least 1000 µM.
In the case of IYGKGGFQF, the Kd (HLA-A*24:02) is reported as 0.163 µM.
TEYFKNKNM gave a Kd (HLA-B*44:02) of at least 31.4 µM.
Work on HPFLKSGFTF yielded a Kd (HLA-A*24:02) of 10.5 µM, a Kd (HLA-B*07:02) of 0.226 µM and a Kd (HLA-B*44:02) of at least 1000 µM.
NSDKLDLIY showed a Kd (HLA-A*01:01) of 0.875 µM.
TMANQNMNY was tested, and the Kd (HLA-A*03:01) was 0.943 µM and the Kd (HLA-A*01:01) was 2.02 µM.
In the case of HPKYRNFKF, the Kd (HLA-B*07:02) is reported as 0.336 µM.
Work on TMANQNMNYK yielded a Kd (HLA-A*03:01) of 0.209 µM.
Work on STDIIFLTMK yielded a Kd (HLA-A*03:01) of 8.78 µM and a Kd (HLA-A*01:01) of at least 1000 µM.
Work on KYDPRISGW yielded a Kd (HLA-A*24:02) of 5.01 µM.
Work on GLSPHDTMQK yielded a Kd (HLA-A*03:01) of 1.1 µM.
In the case of FLLNLLNEHV, the Kd (HLA-A*02:01) is reported as 1.68 µM.
YPIEKLGHV showed a Kd (HLA-B*07:02) of 0.257 µM.
SLTHKYNEFV was tested, and the Kd (HLA-A*02:01) was at least 182 µM.
Sequence TYSIYTNFKN has a Kd (HLA-A*24:02) of at least 26.6 µM.
With YITNKNKVTI the Kd (HLA-A*02:01) was at least 1000 µM.
MYHNKEFDF gave a Kd (HLA-A*24:02) of 4.51 µM.
NMNYKQNNF was tested, and the Kd (HLA-A*24:02) was 14.7 µM.
HYNTYKNRVF showed a Kd (HLA-A*24:02) of 3 µM.
FIDPQTEMFK gave a Kd (HLA-A*03:01) of 8.1 µM and a Kd (HLA-A*01:01) of at least 46.6 µM.
Sequence KPNFWRFQDY has a Kd (HLA-B*07:02) of at least 1000 µM.
KLPPLLNEI showed a Kd (HLA-A*24:02) of 0.0887 µM and a Kd (HLA-A*02:01) of 2.66 µM.
In the case of IWYKYTESDF, the Kd (HLA-A*24:02) is reported as 1.12 µM.
KEDDTFEVY showed a Kd (HLA-A*01:01) of at least 1000 µM.
Sequence LTHKYNEFV has a Kd (HLA-A*01:01) of at least 174 µM and a Kd (HLA-A*02:01) of 2.41 µM.
For NSPNVNKRY, the Kd (HLA-A*01:01) was at least 1000 µM.
With SIASKNLMWV the Kd (HLA-A*03:01) was at least 1000 µM, the Kd (HLA-B*07:02) was at least 1000 µM and the Kd (HLA-A*02:01) was at least 284 µM.
With KEEKEINDEY the Kd (HLA-B*44:02) was at least 1000 µM.
LPIEPKKLA was tested, and the Kd (HLA-B*07:02) was at least 561 µM.
For TEMFKLRLNL, the Kd (HLA-A*24:02) was at least 58.2 µM, the Kd (HLA-B*07:02) was at least 1000 µM and the Kd (HLA-B*44:02) was at least 54.8 µM.
NENNTTYQY showed a Kd (HLA-B*44:02) of 18.4 µM.
In the case of SILISRLTL, the Kd (HLA-B*44:02) is reported as at least 1000 µM.
